Reference: US6893870 (Human Genome Sciences, dated 2005)

Molecular target: tissue plasminogen activator (UniProt P00750 36-562, limits assumed)
Assay: cell-based or functional assay

Chain of tissue plasminogen activator (P00750 36-562 limits assumed): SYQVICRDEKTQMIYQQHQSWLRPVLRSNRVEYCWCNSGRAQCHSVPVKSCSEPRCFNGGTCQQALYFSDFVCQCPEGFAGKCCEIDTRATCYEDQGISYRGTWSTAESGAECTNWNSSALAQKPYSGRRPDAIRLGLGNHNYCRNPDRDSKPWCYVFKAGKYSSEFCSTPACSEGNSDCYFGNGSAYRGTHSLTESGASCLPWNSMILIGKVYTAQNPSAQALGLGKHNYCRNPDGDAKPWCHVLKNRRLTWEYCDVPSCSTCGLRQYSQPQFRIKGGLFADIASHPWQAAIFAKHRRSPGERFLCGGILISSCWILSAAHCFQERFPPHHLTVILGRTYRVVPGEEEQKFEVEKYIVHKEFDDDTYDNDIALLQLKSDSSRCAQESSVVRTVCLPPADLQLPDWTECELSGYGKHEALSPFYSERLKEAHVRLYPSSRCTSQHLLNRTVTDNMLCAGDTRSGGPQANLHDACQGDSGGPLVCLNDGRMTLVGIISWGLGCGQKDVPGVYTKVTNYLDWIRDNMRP

anti-tPA activity (plasminogen activator inhibitory activity) of concentrated conditioned media: 3 fold over PAPAI negative clones
B1: pancreas-derived plasminogen activator inhibitor (PAPAI) protein (other)
chain: SRCSAQKNTEFAVDLYQEVSLSHKDNIIFSPLGITLVLEMVQLGAKGKAQQQIRQTLKQQETSAGEEFLVLKSFCSAISEKKQEFTFNLANALYLQEGFTVKEQYLHGNKEFFQSAIKLVDFQDAKACAEMISTWVERKTDGKIKDMFSGEEFGPLTRLVLVNAIYFKGDWKQKFRKEDTQLINFTKKNGSTVKIPMMKALLRTKYGYFSESSLNYQVLELSYKGDEFSLIIILPAEGMDIEEVEKLITAQQILKWLSEMQEEEVEISLPRFKVEQKVDFKDVLYSLNITEIFSGGCDLSGITDSSEVYVSQVTQKVFFEINEDGSEAATSTGIHIPVIMSLAQSQFIANHPFLFIMKHNPTESILFMGRVTNPDTQEIKGRDLDSL
